B1: 9D5 (antibody, V domains shown)
VH: EVKLVESGGGLVQPGGSLKLSCAASGFTFSSYTMSWVRQTPEKRLELVAEISNSGDTTYYPDTVKGRFTFSRDNAKNTLYLQMSSLKSEDTAMYYCARHYYYGGGYGGWFFDVWGTGTTVTVSS
VL: DIVMTQAAPSVPVTPGESVSISCRSSKSLLHSNGNTYLYWFLQRPGQSPQLLIYRVSNLASGVPDRFSGSGSGTAFTLRISRVEAEDVGVYYCMQHLEYPLTFGAGTKLELK
B2: Hu-6C1-H3bL2 (antibody, human IgG1, kappa, V domains shown)
VH: EVQLVESGGGLVQPGGSLKLSCAASGFTFSNYYMSWVRQAPGKRLEWVAYISIDGNNIYHPDSVKGRFTISRDNAKNTLYLQMNSLKAEDTAMYYCARDSDYGYFDVWGQGTLVTVSS
VL: DIVMTQTPLSLPVTPGEPASISCRSSQSIVHSNGNTYLEWYLQKPGQSPKLLIYKVSKRFSGVPDRFSGSGSGTDFTLKISRVEAEDVGVYYCFQGSHVPLTFGGGTKVEIKR
notes: also called Hu6C1VHv3b/VLv2; humanized 6C1 heavy chain version 3b / light chain version 2

Experiments:
pH4-treated TTR [1] = target: T1, pH4-treated TTR (human, UniProt P02766 21-147); assay: ELISA; pH4-TTR captured on anti-His-coated plate, mAb 0.31-2.5 µg/ml
Method: Four lead mis-TTR mAbs (9D5, 14G8, 6C1, and 5A1) were assayed by ELISA at concentrations ranging from 0.31 to 2.5 μg/ml using both pH4.0-treated TTR (pH4-TTR) and native TTR as the coating antigen. TTR antigen preparation and ELISA protocols are described elsewhere in Materials and Methods (e-g).
Coated and blocked 96-well plates were treated with 50 μl per well of 2.5 μg/ml TTR antigen (either native TTR or pH4-TTR) for 1 hr. at room temperature. The plates were then washed two times with 250 μl per well of wash buffer (1× Tris Buffered Saline containing 0.05% Tween-20). Washed plates were then treated with 50 μl per well of the appropriate anti-TTR monoclonal antibody at concentrations ranging from of 0.31 to 2.5 μg/ml, for 1 hr.
The treated plates were washed 3 times with 250 μl perwell wash buffer. After washing, the plates were treated for 1 hr. with 50 μl per well of detection antibody comprising a 1:5,000 dilution of […] goat-anti-mouse (Jackson ImmunoResearch #115-035-164) in 1×PBS. The plate was then washed 3 times prior to the addition of 100 μl per well TMB substrate (Rockland). The HRP reaction was allowed to proceed at room temperature for 15 min. before quenching with a 50 μl per well volume of 1N […]. Spectroscopic absorbance was measured at a wavelength of 450 nm.

pH4-treated TTR [2] = target: T1, pH4-treated TTR; assay: Sandwich ELISA (pH 4-TTR)
[3] = target: T2, analyte of Example 8 (not named); assay: Biacore (SPR); analyte not named
T2 construct: Target of the Biacore run of Hu-6C1-H3bL2

Binder	Kd (pH4-treated TTR [1])	Kd (pH4-treated TTR [2])	Kd [3]	koff [3]	kon [3]
B1	282 nM	257 nM			
B2			1.46 nM	0.000545 s⁻¹	372000 M⁻¹ s⁻¹
